The text below walks through data of paper PMC4917739.

For assay [1], the target named is BG505 SOSIP.664 N88Q (HIV-1 strain BG505). In words: SPR. On the technique in general: SPR reads the build-up and loss of mass on a sensor chip optically.
Assay [2] addresses BG505 SOSIP.664 trimer (HIV-1 strain BG505). The assay can be described thus: SPR.
Assay [3] addresses single-chain BG505 SOSIP.664 trimer (HIV-1 strain BG505). In words: SPR.
Assay [4] addresses BG505 SOSIP.664 trimer (HIV-1 strain BG505). The assay can be described thus: negative-stain electron microscopy.

Turning to Fab VRC34.01, the Kd in assay [1] stood at 19.9 nM; in assay [2] it was 0.3 nM; in assay [3] it was 272 nM. The substance also yielded a stoichiometry N in assay [4] of 3.

Broadly, the Kd is the concentration at which binding is half-saturated. The low end stands for higher affinity, the high end for lower affinity. The stoichiometry N is the number of molecules, sites or subunits per partner or assembly.
